According to paper doi:10.1101/481754, “Tumor Protein D54 is a promiscuous Rab effector” (bioRxiv, 2018):

Molecular target: T1, MBP-TPD54-His (human, UniProt O43399 1-206)
T1 construct: human Tumor protein D54 (TPD54/TPD52L2) inserted in the pMalPre-His vector; also called recombinant MBP-TPD54-His; source: E. coli BL21, purified (HisTrap); not shown: MBP, N-terminal, kept; His, C-terminal, kept
Assay: pull-down; 3 µM GST, GST-Rab1a or GST-Rab6a pre-loaded with 300 µM GppNHp, incubated with 3 µM MBP-TPD54-His 90 min at 20 °C in 25 mM HEPES, 150 mM KCl, 5 mM MgCl2 pH 7.4; glutathione-sepharose beads; Coomassie gel
Settings: both partners purified

T1 sequence (O43399 whole entry): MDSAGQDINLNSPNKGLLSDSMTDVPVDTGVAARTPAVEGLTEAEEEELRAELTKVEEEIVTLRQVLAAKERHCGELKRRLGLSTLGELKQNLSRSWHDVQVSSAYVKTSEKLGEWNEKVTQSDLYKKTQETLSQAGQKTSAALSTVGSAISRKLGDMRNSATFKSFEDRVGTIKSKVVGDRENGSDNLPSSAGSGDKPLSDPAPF

B1: GST-Rab1a (natural protein)
chain: not shown
notes: human Rab1a, cut from GFP-Rab1a and inserted into pGEX-6P1; pre-loaded with GDP or GppNHp; source: E. coli BL21, purified (GSTrap); not shown: GST, N-terminal, kept
B1: binds.
